# Assay results: the DeepSol protein solubility set
# Assay: soluble on expression in E. coli; label from the status in PepcDB or PDB records
row,Sequence,soluble on expression in E. coli
1,MSLKIVNITTQVESIELKTPFKTALRQTSHVEFVRVEVECDNGFVGIGEASATKVITGEDIYIILTSIASVEELFLNLTCEEALGALHTKCAIGSSAKASLDIAFVHLLSQEAKKPLYEYFGATDKSALKSDITISLNEADVMLNDAKKAFSNGMDILKIKVGSDILHAIDIVRKIAKELPECDILVDANQAWSFENTVLFIENMLNTPIKLIEQPVEAPNLDGLKKITELSHIPILADEAVFTLKDAKKVIEEKCADMINIKLMKCGGVSKAIEILEFARNREFKCMLGSMLEGPYSINMALHLAFAYRDVIEFVDLDSPLLYKEMPKELDFVFDGCEIKPLEGHHHHHH,soluble
2,MTNPLLTPFELPPFSKILPEHVVPAVTKALNDCRENVERVVAQGAPYTWENLCQPLAEVDDVLGRIFSPVSHLNSVKNSPELREAYEQTLPLLSEYSTWVGQHEGLYKAYRDLRDGDHYATLNTAQKKAVDNALRDFELSGIGLPKEKQQRYGEIATRLSELGNQYSNNVLDATMGWTKLVTDEAELAGMPESALAAAKAQAEAKELEGYLLTLDIPSYLPVMTYCDNQALREEMYRAYSTRASDQGPNAGKWDNSKVMEEILALRHELAQLLGFENYAFKSLATKMAENPQQVLDFLTDLAKRARPQGEKELAQLRAFAKAEFGVDELQPWDIAYYSEKQKQHLYSISDEQLRPYFPENKAVNGLFEVVKRIYGITAKERKDVDVWHPDVRFFELYDENNELRGSFYLDLYARENKRGGAWMDDCVGQMRKADGSLQKPVAYLTCNFNRPVNGKPALFTHDEVITLFHEFGHGLHHMLTRIETAGVSGISGVPWDAVELPSQFMENWCWEPEALAFISGHYETGEPLPKELLDKMLAAKNYQAALFILRQLEFGLFDFRLHAEFRPDQGAKILETLAEIKKLVAVVPSPSWGRFPHAFSHIFAGGYAAGYYSYLWADVLAADAFSRFEEEGIFNRETGQSFLDNILSRGGSEEPMDLFKRFRGREPQLDAMLEHYGIKG,soluble
3,MVCGKKRVGEELRCKSCGSPFEIRTGFHYRENIEDNFPYIKNMISLGESETPIFHGDDFDLKLDYMLPTFSYKDRGSRILISHIADIRDSYGITRISEDSSGNAGASIAAYGSAAGLAVDIYVPETVAGRKFSQIQAYGANVIKVKGSREDVQSAAERSESFYASHVLRPEFRDGIRTLAYEIYRQYDRMPRNIYIPVSAGTLLLGLYSGLRHLMESGEIAEMPAIVAVQTEAVSPLCAKINGLNYDPDNKLSSIADALVSRKPVLLQKMYQVISEYGRCMTVSDDEIIEARNRLAKKGFLVEYSSATVYAAFRKKPQENSLLVLTGSGLKNDS,not soluble
4,GLVAHSDLDERAIEALKEFNEDGALAVLQQFKDSDLSHVQNKSAFLCGVMKTYRQREKQGTKVADSSKGPDEAKIKALLERTGYTLDVTTGQRKYGGPPPDSVYSGQQPSVGTEIFVGKIPRDLFEDELVPLFEKAGPIWDLRLMMDPLTGLNRGYAFVTFCTKEAAQEAVKLYNNHEIRSGKHIGVCISVANNRLFVGSIPKSKTKEQILEEFSKVTEGLTDVILYHQPDDKKKNRGFCFLEYEDHKTAAQARRRLMSGKVKVWGNVGTVEWADPIEDPDPEVMAKVKVLFVRNLANTVTEEILEKAFSQFGKLERVKKLKDYAFIHFDERDGAVKAMEEMNGKDLEGENIEIVFAKPPDQKRKERKAQRQAAKNQMYDDYYYYGPPHMPPPTRGRGRGGRGGYGYPPDYYGYEDYYDYYGYDYHNYRGGYEDPYYGYEDFQVGARGRGGRGARGAAPSRGRGAAPPRGRAGYSQRGGPGSARGVRGARGGAQQQRGRGQGKGVEAGPDLLQ,soluble
5,LRNATQRMFEIDYSRDSFLKDGQPFRYISGSIHYSRVPRFYWKDRLLKMKMAGLNAIQTYVPWNFHEPWPGQYQFSEDHDVEYFLRLAHELGLLVILRPGPYICAEWEMGGLPAWLLEKESILLRSSDPDYLAAVDKWLGVLLPKMKPLLYQNGGPVITVQVENEYGSYFACDFDYLRFLQKRFRHHLGDDVVLFTTDGAHKTFLKCGALQGLYTTVDFGTGSNITDAFLSQRKCEPKGPLINSEFYTGWLDHWGQPHSTIKTEAVASSLYDILARGASVNLYMFIGGTNFAYWNGANSPYAAQPTSYDYDAPLSEAGDLTEKYFALRNIIQKFEKVPEGPIPPSTPKFAYGKVTLEKLKTVGAALDILCPSGPIKSLYPLTFIQVKQHYGFVLYRTTLPQDCSNPAPLSSPLNGVHDRAYVAVDGIPQGVLERNNVITLNITGKAGATLDLLVENMGRVNYGAYINDFKGLVSNLTLSSNILTDWTIFPLDTEDAVRSHLGGWGHRDSGHHDEAWAHNSSNYTLPAFYMGNFSIPSGIPDLPQDTFIQFPGWTKGQVWINGFNLGRYWPARGPQLTLFVPQHILMTSAPNTITVLELEWAPCSSDDPELCAVTFVDRPVIGSSVTYDHPSKPVEKRLMPPPPQKNKDSWLDHV,soluble
6,MGSDKIHHHHHHMGSLAVIDAPGWYETIRMADGVTLIHEPWIKPFFRCNIWHVRGRDRDLLFDTGLGHFSLRTHVPLVTERKLTCVASHTHFDHIGCHHEFPDRGVHPAEAKILADPRNEWTVADRYATDDMFDGLPQGWESSRYRILPAPADRLLDHGDVVDLGDRAFEVIHTPGHSPGGIALYEKKTGILLSGDIIYDGPLIDDVYHSDIPDYMATLLAMRELDVSVVHGGHFPSFGKVRYRQLIDEYLAQKRRAGCHLRQRP,not soluble
7,MRVSKSKKPTEICPIVSAIAIIGSEPKLLTIRYLLDGPKRFNELQRLTSLSSKTLSKTLKELENHGIVERKIINSHPIVAVYELTDKGKDLKRVFDELRRWGEKFALTKIAVMNSIRVNQEF,soluble
8,GASIHDPISAGRYFAQRLRANPNEVFAVLFLDNRHRAISFEELFHGTINGAEVHPREVVRRALTLNAAAVIVGHNHPSGNREPSPADQMITQRLKNALDLIDVRLVDHFVIGDGAPVSFAEHGWL,not soluble
9,WQFTPNTGGNTITKVEAENMKIGGTYAGKISAPFDGVALYANADYVSYSQYFANSTHNISVRGASSNAGTAKVDLVIGGVTVGSFNFTGKTPTVQTLSNITHATGDQEIKLALTSDDGTWDAYVDFIEFSL,soluble
10,MGSDKIHHHHHHMEKRYQIFISSTFIDLKDERQAALKAILEIDHMPAGMELFSATDDSAWQLIQDVIDSSDYYILIVGGRYGSLDEAGLSYTEKEYDYALLTKKPVIPLLHENPDNLPRDKTETDSNAWKKLQDFRKKVQKKHTCVYWRNADDLKAKVIVGLTSAIKRHPAVGWVRADKVPTETALAEVLSLKNKITELEKEAALLRDKPPSGTEFLAQGNDKYEIHLSFKSRGKFSIFSHDEDKKYNASINLTWNAIFAAVAPSMINEASAHTLRQAFTDFFKRESLKAFQSQKRFENYELVDFSFHKDEIETCIVQLRALGLIKENDRKRSVSDTSTYWTLTPYGNTLMVQLRAIKREPLEDEDLDGTAVES,not soluble
11,MKRIRLWGLMAGLLLLLVGCGRAETTGVTKPVTTQGHRYIPTLFFHGWGSSYHAETHMADAIVKAGKTQTIVRAMVAKNGTVTLKGHFRSGDYRPIVEVNFANNRSSDYPTVGRWAKNVVVALQRTYGITSFNMVGHSMGNMAITYYLLANAQNKRLPQLRQQVAIAGHFNGILGMDDSPNQMTLNAAGRPNKLRPAYRQLLGLRRVYPRQQVRVLNIYGDKGDGTHSDGSVSNASSRSLRYLVAARARSYREVKLTGKHAQHSQLHENAQVDRLLIDFLWPTH,not soluble
12,MGHKLAFNFNLEINGSDTHSTVDVYLDDSQIITFDGKDIRPTIPFMIGDEIFLPFYKNVFSEFFSLFRRVPTSTPYEDLTYFYECDYTDNKSTFDQFYLYNGEEYTVKTQEATNKNMWLTTSEFRLKKWFDGEDCIMHLRSLVRKMEDSKRNTG,not soluble
13,MAIHNRAGQPAQQSDLINVAQLTAQYYVLKPEAGNAEHAVKFGTSGHRGSAGRHSFNEPHILAIAQAIAEERAKNGITGPCYVGKDTHALSEPAFISVLEVLAANGVDVIVQENNGFTPTPAVSNAILVHNKKGGPLADGIVITPSHNPPEDGGIKYNPPNGGPADTNVTKVVEDRANALLAGGLQGVKRISLDAAMASGHVKAVDLVQPFVEGLADIVDMAAIQKAGLTLGVDPLGGSGIEYWKRIAEHYKLNLTLVNDQVDQTFRFMHLDKDGAIRMDCSSECAMAGLLALRDKFDLAFANDPDYDRHGIVTPAGLMNPNHYLAVAINYLFQHRPLWGKDVAVGKTLVSSAMIDRVVNDLGRKLVEVPVGFKWFVDGLFDGSFGFGGEESAGASFLRFDGTPWSTDKDGIIMCLLAAEITAVTGKNPQEHYNELAARFGAPSYNRLQASATSAQKAALSKLSPEMVSASTLAGDPITARLTAAPGNGASIGGLKVMTDNGWFAARPSGTEDAYKIYCESFLGEEHRKQIEKEAVEIVSEVLKNA,soluble
14,MTILFISDLHLSPLRPDITDCFIDFMQNEAIHAEKLYVLGDLFEFWIGDDDNSPFNVSIKNEFKALTEKGVKCYFIQGNRDFLLNKRFCKETGVELLDDHTVIELDGEKVLIMHGDTLCIDDIKYQEFRAKVHKPWLQWVFNRIPLFIRQRIVKNVQDKIKEKKQTKTLCIMDVTQSEVERVMQEEGVQRLIHGHTHRPDTHTFMSNNKEMTRIVLGDWYSQGSILEYSDKIYSLHKKEFK,not soluble
15,MYDFVIIGGGIIGMSTAMQLIDVYPDARIALLEKESAPACHQTGHNSGVIHAGVYYTPGSLKAQFCLAGNRATKAFCDQNGIRYDNCGKMLVATSDLEMERMRALWERTAANGIEREWLNADELREREPNITGLGGIFVPSSGIVSYRDVTAAMAKIFQSRGGEIIYNAEVSGLNEHKNGVVIRTRQGGEYEASTLISCSGLMADRLVKMLGLEPGFIICPFRGEYFRLAPEHNQIVNHLIYPIPDPAMPFLGVHLTRMIDGSVTVGPNAVLAFKREGYRKRDFSFSDTLEILGSSGIRRVLQNHLRSGLGEMKNSLCKSGYLRLVQKYCPRLSLSDLQPWPAGVRAQAVSPDGKLIDDFLFVTTPRTIHTCNAPSPAATSAIPIGAHIVSKVQTLLASQSNPGRTLRAARSVDALHAAFNQ,not soluble
16,MGSDKIHHHHHHMMDMLIAHISDTHITNEVAFKSYAYDLIVNEINTKPFDLVVHTGDVTNNGLREEYEHASYLIKKIEKPLVVVPGNHDARNVGYELFEKYIGPLYGVYEFDNGVIIWLDSTIPDLSDGRVGGYKFKWLKEKLEAYSHKKIKIVAAHHHLVPLPDTGRERNVLFNAGDVLDLLLTHEVTLYMCGHKHVPNVYRVEDLVVDNAGCASCRKTRKGDVNSYNIVKITDKGVKVVIRRLTGDEESKEHNPIRPKIFIPRGRRLLRIVQISESNVSDRVYFRKRTLENAIKAINEKYKPDIVIHCGDVVEKGIERYYEKAMEYYEKVKGEKIIVPGHNDISYLGYELFREYFGEPEVLELGDFVFIPILSAQYETQIGVVGRTGQKMLSRMLEEFREKFRIVIMHHNLVPVPGVKEIGYLEDAGNVLKIITENETELTLTGHGGNTSAVKVEKSPIINAGSISWELHRNPFGNSFNIIDIYEDMVVAFEIQATWGSRKVLGMWKIKSEIPWL,not soluble
17,GSHMASPPTHNAHNWRLGQAPANWYNDTYPLSPPQRTPAGIRYRIAVIADLDTESRAQEENTWFSYLKKGYLTLSDSGDKVAVEWDKDHGVLESHLAYKGRGMELSDLIVFNGKLYSVDDRTGVVYQIEGSKAVPWVILSDGDGTVEKGFKAEWLAVKDERLYVGGLGKEWTTTTGDVVNENPEWVKVVGYKGSVDHENWVSNYNALRAAAGIQPPGYLIHESACWSDTLQRWFFLPRRASQERYSEKDDERKGANLLLSASPDFGDIAVSHVGAVVPTHGFSSFKFIPNTDDQIIVALKSEEDSGRVASYIMAFTLDGRFLLPETKIGSVKYEGIEFI,soluble
